Laboratory results taken from patent publication US20170029823A1, “TRUNCATED TRK B AND TRK C ANTAGONISTS AND USES THEREOF” (priority 2015, published 2017).
“Also recorded” adds a separate entry of the source.

Columns and labels:
TrkC.T1 = molecular target: T1, TrkC.T1 (Rattus norvegicus, UniProt Q03351); experiment: p-Erk and p-Akt western blot after NT-3 stimulation in 293-TrkC.T1 cells; format: cell-based; conditions: non-infected 293-TrkC.T1 cells, NT-3 4 nM for 10 min
T1 construct: expressed in transfected cells; host or cells: HEK293 (stably transfected subclone 293-TrkC.T1)
T1 sequence (Q03351 32-612 isoform Q03351-5 limits assumed): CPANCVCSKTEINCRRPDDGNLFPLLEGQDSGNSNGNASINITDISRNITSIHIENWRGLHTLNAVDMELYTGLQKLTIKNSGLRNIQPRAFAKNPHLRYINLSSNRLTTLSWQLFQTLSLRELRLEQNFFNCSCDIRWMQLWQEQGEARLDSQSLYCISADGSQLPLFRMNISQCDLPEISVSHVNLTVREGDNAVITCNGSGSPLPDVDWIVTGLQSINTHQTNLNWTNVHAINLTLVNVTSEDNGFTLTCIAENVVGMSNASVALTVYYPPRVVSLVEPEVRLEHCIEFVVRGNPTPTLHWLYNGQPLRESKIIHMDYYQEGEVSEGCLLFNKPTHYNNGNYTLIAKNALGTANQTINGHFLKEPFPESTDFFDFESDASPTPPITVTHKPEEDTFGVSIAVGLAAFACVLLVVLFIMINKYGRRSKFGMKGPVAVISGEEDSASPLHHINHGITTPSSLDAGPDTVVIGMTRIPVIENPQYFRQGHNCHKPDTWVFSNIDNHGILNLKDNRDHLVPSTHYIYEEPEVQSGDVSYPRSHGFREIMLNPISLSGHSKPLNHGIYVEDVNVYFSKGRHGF
Protocol: (§1) FIG. 15A-FIG. 15D illustrates TrkC.T1 directly activates MAPK/Erk in Müller cells. Representative western blots showing the levels of TrkC-FL (140 KDa), TrkC.T1 (110 kDa), p-Erk 1/2 (44 and 42 KDa) and p-Akt (60 KDa) in HEK293 cell expression system and rMC-1 cells, with or without stimulation of 4 nM NT-3 for 10 min. […] FIG. 15B, FIG. 15D Densitometric quantification of p-Erk and p-Akt signal standardized to untreated controls (arbitrary value of 1). The data represent relative protein levels±SEM. n=3 independent experiments. * p<0.05, ** p<0.01 and ***p<0.001.
(§2) HEK293 cells were transfected with human full-length TrkC cDNA (293-TrkC-FL) or with rat TrkC.T1 cDNA (293-TrkC.T1). The cells are stably transfected subclones that express high levels of TrkC-FL or TrkC.T1 receptors and are respectively grown under drug selection (0.5 mg/ml G418 or 1 mg/ml Puromycin).
(§3) All cells types were serum-starved for 1 hour. […]
(§4) Whole retinas either from culture or freshly dissected were collected and added to 200 μL lysis buffer (20 mM Tris-HCl pH 7.5, 137 mM NaCl, 2 mM EDTA, 1% Nonidet P-40) containing a protease inhibitor cocktail (Roche). […] Protein quantities were assessed using the Bradford assay (BioRad), and 40 μg of total protein was mixed with Laemmli buffer, boiled for 5 minutes and loaded onto 10% gels. […] Blots were scanned and quantified using ImageJ software. […]

TNF-α = TNF-α mRNA (PCR) and protein (ELISA) in rMC-1 cells; format: cell-based; conditions: NT-3 (10 nM) or LPS (1 μg/ml) for 6 hrs
Excerpt: FIG. 7A-FIG. 7D illustrates development and validation of a TrkC.T1 inhibitor that prevents TrkC.T1-mediated induction of TNF-α FIG. 7A The mRNA levels of TrkC-FL and TrkC.T1 were quantified by PCR, after infection with lentivirus pLKO.Scr (scrambled control) or with pLKO.1 (expressing a unique shRNA (SEQ ID NO: 1) targeting TrkC.T1 mRNA specifically). Results are normalized to reference GAPDH mRNA. Data are expressed as the mean+SEM; n=3 independent experiments each in triplicate. […] FIG. 7B and FIG. 7C In rMC-1 cells the levels of TNF-α mRNA and protein were quantified by PCR or by ELISA after infection with pLKO.1TrkC.T1 or pLKOScr control. NT-3 and LPS treatment induce TNF-α and pLKO.1 prevents it. Data are standardized to untreated control. Average±sem, n=3 independent experiments each in triplicate. FIG. 7D In spinal cord of ALS G93A versus wild type mice the levels of TNF-α mRNA were assessed by quantitative PCR. Results were normalized to GAPDH. Data are expressed as the mean±SEM n=8 independent spinal cords per group. A-F t-test was applied for statistical analysis. * p<0.05, ** p<0.01 versus control. Stars with brackets indicate differences between the indicated groups.
In rMC-1 cells treatment with NT-3 (10 nM) or LPS (1 μg/ml) for 6 hrs increases TNF-α mRNA (FIG. 7B) and protein (FIG. 7C).

[1] = molecular target: T2, endogenous TrkC.T1 in rMC-1 cells (Rattus norvegicus, UniProt Q03351); experiment: p-Erk and p-Akt western blot after NT-3 stimulation in rMC-1 cells; format: cell-based; conditions: rMC-1 infected and rMC-1 wild-type cells, 4 nM NT-3 for 10 min
T2 construct: endogenous TrkC.T1 mRNA in r-MC-1 cells was silenced; endogenous in cells; host or cells: rMC-1 (Müller glial cell line)
T2 sequence (Q03351 32-612 isoform Q03351-5 limits assumed): as above
Protocol: as §1
A short hairpin RNA (shRNA) specifically targeting a unique 3′ sequence of the TrkC.T1 mRNA was designed using the DSIR algorithm. The TrkC.T1-targeting shRNA sequence […] (SEQ ID NO: 1), or a scrambled control sequence […] […] TrkC.T1-specific depletion was determined by real-time quantitative PCR and by Western blotting.
as §3, §4

TrkC-FL = molecular target: T3, TrkC-FL (Homo sapiens, UniProt Q16288); experiment: p-Erk and p-Akt western blot after NT-3 stimulation in 293-TrkC-FL cells; format: cell-based; conditions: NT-3 4 nM for 10 min
T3 construct: transfected with human full-length TrkC cDNA (293-TrkC-FL); expressed in transfected cells; host or cells: HEK293 (stably transfected subclone 293-TrkC-FL)
T3 sequence (Q16288 32-839): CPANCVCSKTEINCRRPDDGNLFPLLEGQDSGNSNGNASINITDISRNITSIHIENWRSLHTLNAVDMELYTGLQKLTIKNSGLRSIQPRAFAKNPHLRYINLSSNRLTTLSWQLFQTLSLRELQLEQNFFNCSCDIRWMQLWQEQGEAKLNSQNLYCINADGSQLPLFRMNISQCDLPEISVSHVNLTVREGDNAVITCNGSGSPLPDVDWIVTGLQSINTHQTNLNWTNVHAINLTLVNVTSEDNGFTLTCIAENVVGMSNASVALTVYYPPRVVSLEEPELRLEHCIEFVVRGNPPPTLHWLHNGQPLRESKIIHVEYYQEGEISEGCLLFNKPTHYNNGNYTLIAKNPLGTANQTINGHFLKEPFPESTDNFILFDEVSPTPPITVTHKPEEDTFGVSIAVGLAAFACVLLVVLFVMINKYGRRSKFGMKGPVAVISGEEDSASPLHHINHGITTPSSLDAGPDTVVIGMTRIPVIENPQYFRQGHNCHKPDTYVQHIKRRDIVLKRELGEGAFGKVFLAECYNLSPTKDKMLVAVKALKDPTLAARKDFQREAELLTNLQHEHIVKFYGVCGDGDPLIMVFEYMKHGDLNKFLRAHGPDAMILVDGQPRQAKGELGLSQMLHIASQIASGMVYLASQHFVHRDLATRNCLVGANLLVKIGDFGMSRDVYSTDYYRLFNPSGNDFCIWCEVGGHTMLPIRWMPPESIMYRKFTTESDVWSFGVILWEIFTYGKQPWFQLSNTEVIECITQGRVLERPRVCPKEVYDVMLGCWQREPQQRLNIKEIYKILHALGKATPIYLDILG
Protocol: as §1, §2, §3, §4

[2] = system: RHOP347S (RHOP) transgenic mouse model of retinitis pigmentosa; experiment: ONL thickness by FD-OCT after intravitreal injection; format: in vivo; conditions: PD98059 intravitreal at post-natal day 17
Protocol: (§5) Intravitreal injections were performed as follows. Briefly, mice were anesthetized with isoflurane, delivered through a gas anesthetic mask. The drugs were delivered using a Hamilton syringe. Injections were done using a surgical microscope to visualize the Hamilton entry into the vitreous chamber and confirm delivery of the injected solution. After the injection, the syringe was left in place for 30 sec and slowly withdrawn from the eye to prevent reflux. Experimental right eyes were injected with the test agents and control left eyes serve as internal control.
All intravitreal injections delivered 2 μl of the MAPK/ERK inhibitor PD98059 (10 mM stock) or the selective-TrkC antagonist 3F (1 mM stock). Control eyes were injected with 50% DMSO for PD98059 assays or 5% DMSO for the compound 3F assays. Intravitreal injections in wild-type or RHOP-mice were made at post-natal day 17. Experimental time points to measure ONL thinning were set at post-natal days 18, 22, 24 and 28. The end point for analyzing the effect of the compounds on the expression of p-Erk and p-Akt was at post-natal day 18 (24 hours after intravitreal injection).
A noninvasive prototype spectrometer-based FD-OCT system was used to acquire the retinal images. FD-OCT is a noninvasive method that allows time-kinetic studies in the same animal, with axial resolution in tissue nominally better than 4 μm and repeatability of the measurements from B-scans better than 1 μm. Data acquisition was performed using custom software written in C++ for rapid frame grabbing, processing, and display of two-dimensional images. Manual segmentations were used to measure the thicknesses of the mice retinas. Mice were anesthetized using isoflurane/O2 and placed on a platform, and the head was oriented to an angle at which the eye was properly aligned to the optical beam. The pupils were dilated with a topical solution (atropine sulfate 1%; Alcon, Fort Worth, Tex.). Refraction of light at the cornea was cancelled by placing over the eye a generic artificial tear gel. Alignment of the optical system to the […] retina required a few minutes and was followed by rapid acquisition of data (about 5 s/vol). During retinal scanning, three volumes were acquired in different sectors of the retina containing the ON head as landmark.
After processing, three B-scans were randomly selected from each volume. The retinal thickness measurements were performed with Matlab software using the saved data. In each B-scan, the thickness of the nerve fiber layer (NFL)—ganglion cell layer (GCL)—inner plexiform layer (IPL), hereafter referred to as NGI and outer nuclear layer (ONL) was measured at three adjacent points. […]

p-Erk and p-Akt = p-Erk and p-Akt immunohistochemistry in RHOP retinas after intravitreal injection; format: in vivo, mouse; conditions: post-natal day 18, 24 h after intravitreal PD98059, vs vehicle-injected eye
Protocol: as §5
All intravitreal injections delivered 2 μl of the MAPK/ERK inhibitor PD98059 (10 mM stock) or the selective-TrkC antagonist 3F (1 mM stock). Control eyes were injected with 50% DMSO for PD98059 assays or 5% DMSO for the compound 3F assays. Intravitreal injections in wild-type or RHOP-mice were made at post-natal day 17. Experimental time points to measure ONL thinning were set at post-natal days 18, 22, 24 and 28. The end point for analyzing the effect of the compounds on the expression of p-Erk and p-Akt was at post-natal day 18 (24 hours after intravitreal injection). […]
For each experimental condition, a minimum of 6 images were acquired from 3 sections cut from different areas of the retina (n=3-4 retinas per group). The area of the profiles of the cells expressing p-Akt and p-Erk was measured using ImageJ software. […]

[3] = molecular target: human full-length TrkC expressed on HEK293 cells (293-TrkC-FL) (human) (UniProt Q16288); experiment: cell-based or functional assay
Sequence of human full-length TrkC expressed on HEK293 cells (293-TrkC-FL) (human) (Q16288 32-839): as above

[4] = molecular target: rat TrkC.T1 expressed on HEK293 cells (293-TrkC.T1) (rat) (UniProt Q03351); experiment: cell-based or functional assay
Sequence of rat TrkC.T1 expressed on HEK293 cells (293-TrkC.T1) (rat) (Q03351 32-864): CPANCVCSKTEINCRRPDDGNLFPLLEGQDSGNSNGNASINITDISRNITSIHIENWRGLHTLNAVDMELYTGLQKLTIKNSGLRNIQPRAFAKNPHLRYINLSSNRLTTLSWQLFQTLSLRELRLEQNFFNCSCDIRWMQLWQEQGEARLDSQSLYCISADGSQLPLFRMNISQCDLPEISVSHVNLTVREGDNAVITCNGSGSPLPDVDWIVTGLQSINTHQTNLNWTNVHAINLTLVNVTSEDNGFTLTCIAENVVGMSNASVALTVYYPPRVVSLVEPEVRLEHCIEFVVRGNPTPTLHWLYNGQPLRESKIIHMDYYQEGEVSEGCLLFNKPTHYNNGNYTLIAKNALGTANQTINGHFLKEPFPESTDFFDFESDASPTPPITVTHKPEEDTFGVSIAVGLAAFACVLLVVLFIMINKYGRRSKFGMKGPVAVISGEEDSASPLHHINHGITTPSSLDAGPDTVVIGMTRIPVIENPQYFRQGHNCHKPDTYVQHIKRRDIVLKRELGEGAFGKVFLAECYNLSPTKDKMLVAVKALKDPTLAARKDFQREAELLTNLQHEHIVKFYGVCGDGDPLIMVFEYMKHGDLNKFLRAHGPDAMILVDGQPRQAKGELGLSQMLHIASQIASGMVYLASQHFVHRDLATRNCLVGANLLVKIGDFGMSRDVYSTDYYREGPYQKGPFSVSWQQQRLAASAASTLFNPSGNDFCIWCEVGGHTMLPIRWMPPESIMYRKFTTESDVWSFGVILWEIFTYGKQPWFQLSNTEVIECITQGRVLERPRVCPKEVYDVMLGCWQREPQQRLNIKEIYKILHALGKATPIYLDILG

neurotrophin-3 [NT-3]
increase in p-Erk levels (TrkC.T1): ~2 fold
TNF-α mRNA and protein (TNF-α): increases; also recorded: induce
levels of p-Akt [1]: did not change
increase in p-Akt levels (TrkC-FL): ~1.5
increase in p-Erk (TrkC-FL): ~2.5 fold

COc1cccc(-c2cc(=O)c3ccccc3o2)c1N [PD98059]
ONL thickness vs vehicle-injected eye ([2]; RHOP mice, post-natal day 22 (did not reach significant values)): slightly bigger
ONL thickness vs vehicle-injected eye ([2]; RHOP mice, post-natal day 24): clear protective effect; also recorded: bigger
ONL thickness vs vehicle-injected eye ([2]; RHOP mice, post-natal day 28): still larger; also recorded: bigger
ONL thickness vs vehicle-injected eye ([2]; WT mice): No changes
block of p-Erk in Müller cells (p-Erk and p-Akt): 030%
p-Erk signal (immunoreactivity) in Müller cells (p-Erk and p-Akt): abolished; also recorded: reduced

B1: neurotrophin-3 (NT-3) (ligand, UniProt P20783 139-257, looked up)
chain: YAEHKSHRGEYSVCDSESLWVTDKSSAIDIRGHQVTVLGEIKTGNSPVKQYFYETRCKEARPVKNGCRGIDDKHWNSQCKTSQTYVRALTSENNKLVGWRWIRIDTSCVCALSRKIGRT
p-Akt level (Western blot densitometry) after 4 nM NT-3 for 10 min [3]: 1.5 fold
p-Erk level (Western blot densitometry) after 4 nM NT-3 for 10 min [3]: 2.5 fold
p-Erk level (Western blot densitometry) after 4 nM NT-3 for 10 min, non-infected 293-TrkC.T1 cells [4]: 2 fold
